In patent US20250002610A1 (Genmab, published 2025):

Experiments:
[1] = target: T1, human DR4 (Death Receptor 4), cell surface expressed on human tumor cell lines (human, UniProt O00220 24-468); test: flow cytometry, MDA-MB-231 cells, N = 2
T1 construct: also called TNFRSF10A; TRAIL-R1
T1 sequence: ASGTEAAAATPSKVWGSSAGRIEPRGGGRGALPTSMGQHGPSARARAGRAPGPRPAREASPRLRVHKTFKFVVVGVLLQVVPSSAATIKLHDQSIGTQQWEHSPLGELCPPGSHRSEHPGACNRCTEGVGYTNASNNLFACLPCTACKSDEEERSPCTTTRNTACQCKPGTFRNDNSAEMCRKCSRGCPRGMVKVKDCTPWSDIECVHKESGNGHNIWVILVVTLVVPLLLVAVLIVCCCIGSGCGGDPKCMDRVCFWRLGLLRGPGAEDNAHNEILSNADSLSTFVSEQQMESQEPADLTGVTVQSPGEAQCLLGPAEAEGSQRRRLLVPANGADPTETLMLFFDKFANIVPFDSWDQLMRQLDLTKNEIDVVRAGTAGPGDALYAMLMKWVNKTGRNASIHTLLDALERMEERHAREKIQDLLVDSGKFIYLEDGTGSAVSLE

[2] = target: T1, human DR4 (Death Receptor 4), cell …; test: flow cytometry, DLD-1 cells, n = 2
[3] = target: T2, human FAPα (Fibroblast activation protein alpha), cell surface expressed (human, UniProt Q12884 1-760); test: flow cytometry, human lung fibroblasts, n = 2
T2 construct: Endogenous on human lung fibroblasts and CAFs
T2 sequence: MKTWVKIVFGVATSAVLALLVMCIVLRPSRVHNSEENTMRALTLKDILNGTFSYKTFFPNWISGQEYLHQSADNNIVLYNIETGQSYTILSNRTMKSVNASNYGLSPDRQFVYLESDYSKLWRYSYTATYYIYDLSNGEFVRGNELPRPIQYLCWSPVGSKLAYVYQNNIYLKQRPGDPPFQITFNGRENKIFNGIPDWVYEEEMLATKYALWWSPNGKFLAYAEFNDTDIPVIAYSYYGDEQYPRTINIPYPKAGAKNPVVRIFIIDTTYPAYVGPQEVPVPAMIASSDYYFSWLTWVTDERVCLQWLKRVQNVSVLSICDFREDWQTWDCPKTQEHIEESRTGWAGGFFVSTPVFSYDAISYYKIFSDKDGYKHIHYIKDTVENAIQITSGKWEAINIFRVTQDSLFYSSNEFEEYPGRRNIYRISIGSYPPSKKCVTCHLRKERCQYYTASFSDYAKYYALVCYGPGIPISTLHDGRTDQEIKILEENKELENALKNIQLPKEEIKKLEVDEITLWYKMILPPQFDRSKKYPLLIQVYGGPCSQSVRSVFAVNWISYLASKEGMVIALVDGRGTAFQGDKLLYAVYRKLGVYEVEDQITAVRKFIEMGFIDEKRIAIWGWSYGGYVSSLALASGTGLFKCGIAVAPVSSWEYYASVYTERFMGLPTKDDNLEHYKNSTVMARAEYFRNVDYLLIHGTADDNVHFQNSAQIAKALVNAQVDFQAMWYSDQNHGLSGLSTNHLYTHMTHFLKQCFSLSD
Description: (§1) Binding of bispecific or monoclonal antibodies carrying the anti-FAPα arm derived from IgG1-FAPα-FERL (BisG1-FAPα-FERL/DR4-FERR, BisG1-FAPα-FERL/b12-FERR, and IgG1-FAPα-FERL) to cell surface expressed human FAPα was analyzed by flow cytometry using human lung fibroblasts and CAFs, which endogenously express FAPα. BisG1-b12-FERL/b12-FERR was used as negative control.
(§2) Human lung fibroblasts and CAFs (50,000 cells/well) were seeded in 96-Well round bottom plates (Greiner Bio-one, Cat #650101). Antibody dilutions were prepared using fluorescence-activated cell sorting (FACS) buffer, consisting of phosphate buffer saline (PBS, Lonza, Cat #BE17-517Q)+1% Bovine Serum Albumin (BSA, Roche, Cat #10735086001)+0.02% Sodium Azide (Bio-World, Cat #41920044-3). Plates were centrifuged, supernatant was removed, cells were resuspended in 50 μL of human Fc Block (BD, Cat #564220, diluted 1:100 in FACS buffer) and 50 μL of viability stain TO-PRO-3 Iodide (Thermo Fisher, Cat #T3605, diluted 1: 25,000 in FACS buffer), and incubated for 15 min at 4° C. Plates were washed three times with FACS buffer. Plates were centrifuged, supernatant was removed, cells were resuspended in 50 μL of antibody dilutions (concentration range 90-0.0005 μg/mL, three-fold dilution steps using FACS buffer) of BisG1-FAPα-FERL/DR4-FERR, BisG1-FAPα-FERL/b12-FERR, BisG1-b12-FERL/b12-FERR (top six concentrations only for CAFs culture) or IgG1-FAPα-FERL (top four concentrations only for CAFs culture) and incubated for 30 min at 4° C. Cells were washed three times with FACS buffer and resuspended in 50 μL of Fluorescein isothiocyanate (FITC)-labeled polyclonal antibody goat anti-mouse IgG1 (Jackson Immuno Research, Cat #109-096-097, diluted 1:100 in FACS buffer). […] Antibody binding to viable cells (TO-PRO-3 negative) was analyzed by flow cytometry on a FACSCelesta™ (BD biosciences) and data were processed using FlowJo_v10.8.1 (FlowJo LLC). Geomean fluorescence intensity, gMFI, was determined and visualized using GraphPad Prism.

[4] = target: T1, human DR4 (Death Receptor 4), cell …; test: flow cytometry, A549 cells, n = 2
[5] = target: T1, human DR4 (Death Receptor 4), cell …; test: flow cytometry, MDA-MB-231 cells, average ± SEM
[6] = target: T2, human FAPα (Fibroblast activation …); test: flow cytometry, human lung fibroblasts, average ± SEM
Description: as §1, §2

[7] = target: T1, human DR4 (Death Receptor 4), cell …; test: flow cytometry, HCT-116 cells, average ± SEM

- EC50 [3]: 0.047 µg/mL
- EC50 [6]: 0.051 µg/mL
B1: BisG1-FAPα-FERL/DR4-FERR (bispecific antibody, human IgG1, kappa, lambda)
heavy 1: EVQLLESGGGLVQPGGSPRLSCEASGFTFSSYALSWVRQAPGKGLEWVSAISGSGGGRYYADSVKGRFTISRDNSKNTLFLQMNSLRAEDTAVYYCAKEGYSSSGTYWDHWGQGTLVTVSSASTKGPSVFPLAPSSKSTSGGTAALGCLVKDYFPEPVTVSWNSGALTSGVHTFPAVLQSSGLYSLSSVVTVPSSSLGTQTYICNVNHKPSNTKVDKRVEPKSCDKTHTCPPCPAPEFERGPSVFLFPPKPKDTLMISRTPEVTCVVVDVSHEDPEVKFNWYVDGVEVHNAKTKPREEQYNSTYRVVSVLTVLHQDWLNGKEYKCKVSNKALPAPIEKTISKAKGQPREPQVYTLPPSREEMTKNQVSLTCLVKGFYPSDIAVEWESNGQPENNYKTTPPVLDSDGSFLLYSKLTVDKSRWQQGNVFSCSVMHEALHNHYTQKSLSLSPG
light 1: AIQMTQSPSSVSASVGDRVTITCRASQGVSSWLAWYQQKPGRAPKLLIYVASTLQSGVPSRFSGSGSGTDFTLTINSLQPEDFATYYCQQANSFPPTFGQGTRLEMKRTVAAPSVFIFPPSDEQLKSGTASVVCLLNNFYPREAKVQWKVDNALQSGNSQESVTEQDSKDSTYSLSSTLTLSKADYEKHKVYACEVTHQGLSSPVTKSFNRGEC
heavy 2: QVQLQESGPGLVKPSGTLSLTCAVSGGSISSYSWWSWIRQPPGKGLEWIGELYHSGSTNYNPSLKSRVTISVDKSKNQFSLKLRSVTAADTAVYYCVRGVATIDYWGQGTLVTVSSASTKGPSVFPLAPSSKSTSGGTAALGCLVKDYFPEPVTVSWNSGALTSGVHTFPAVLQSSGLYSLSSVVTVPSSSLGTQTYICNVNHKPSNTKVDKRVEPKSCDKTHTCPPCPAPEFERGPSVFLFPPKPKDTLMISRTPEVTCVVVDVSHEDPEVKFNWYVDGVEVHNAKTKPREEQYNSTYRVVSVLTVLHQDWLNGKEYKCKVSNKALPAPIEKTISKAKGQPREPQVYTLPPSREEMTKNQVSLTCLVKGFYPSDIAVEWESNGQPENNYKTTPPVLDSDGSFFLYSRLTVDKSRWQQGNVFSCSVMHEALHNHYTQKSLSLSPG
light 2: QSALTQPPSASGSPGQSVTISCTGTSSDVGGYNFVSWYQQDPGKAPKLLIYEVTKRPSGVPDRFSGSKSGNTASLTVSGLQAEDEADYYCSSYAGSNNVMFGGGTKLTVLGQPKAAPSVTLFPPSSEELQANKATLVCLISDFYPGAVTVAWKADSSPVKAGVETTTPSKQSNNKYAASSYLSLTPEQWKSHRSYSCQVTHEGSTVEKTVAPTECS
notes: Human IgG1 bispecific made by controlled Fab-arm exchange of IgG1-FAPα-FERL and IgG1-DR4-FERR; monovalent for FAPα and for DR4; also called GEN1057
- EC50 [1]: 0.72 µg/mL
- EC50 [2]: 0.73 µg/mL
- EC50 [4]: 0.93 µg/mL
- EC50 [5]: 0.72 µg/mL
- EC50 [7]: 0.52 µg/mL
